According to US20240118272A1:

How the values were obtained:
[1] = target: CD9(ECD)-ALP conjugate (human; bovine); test: HI-1000 capture immunoassay; secondary calibrator C4; mean of 3 aliquots
[2] = target: CD9(ECD)-ALP conjugate (human; bovine); test: HI-1000 capture immunoassay; primary calibrator C1, 1.52 ng/mL; run 2
[3] = target: CD9(FL)-ALP conjugate (human; bovine); test: HI-1000 capture immunoassay; calibrator C1, 1.83 mU/L; run 1
[4] = target: CD9(ECD)-ALP conjugate (human; bovine); test: HI-1000 capture immunoassay; thawed aliquot 2 of secondary calibrator C4
[5] = target: CD9(ECD)-ALP conjugate (human; bovine); test: HI-1000 capture immunoassay; primary calibrator C5, 159.87 ng/mL; run 2
[6] = target: CD9(FL)-ALP conjugate (human; bovine); test: HI-1000 capture immunoassay; calibrator C3, 7.4 ng/mL; run 1
[7] = target: CD9(ECD)-ALP conjugate (human; bovine); test: HI-1000 capture immunoassay; primary calibrator C3, 15.65 ng/mL; mean of 3
[8] = target: CD9(FL)-ALP conjugate (human; bovine); test: HI-1000 capture immunoassay; calibrator C3, 10.96 mU/L; run 3
[9] = target: CD9(FL)-ALP conjugate (human; bovine); test: HI-1000 capture immunoassay; calibrator C2, 3.7 ng/mL; run 2
[10] = target: CD9(FL)-ALP conjugate (human; bovine); test: HI-1000 capture immunoassay; calibrator C2, 3.7 ng/mL; mean of 3
[11] = target: CD9(ECD)-ALP conjugate (human; bovine); test: HI-1000 capture immunoassay; thawed aliquot 1 of secondary calibrator C1
[12] = target: CD9(ECD)-ALP conjugate (human; bovine); test: HI-1000 capture immunoassay; secondary calibrator C4, 129.62 U/L; mean of 3
[13] = target: CD9(FL)-ALP conjugate (human; bovine); test: HI-1000 capture immunoassay; calibrator C3, 7.4 ng/mL; run 2
[14] = target: CD9(FL)-ALP conjugate (human; bovine); test: HI-1000 capture immunoassay; calibrator C1, 1.83 mU/L; mean of 3
[15] = target: CD9(ECD)-ALP conjugate (human; bovine); test: HI-1000 capture immunoassay; primary calibrator C5, 159.87 ng/mL; run 1
[16] = target: CD9(ECD)-ALP conjugate (human; bovine); test: HI-1000 capture immunoassay; secondary calibrator C1, 1.02 U/L; run 1
[17] = target: CD9(ECD)-ALP conjugate (human; bovine); test: HI-1000 capture immunoassay; thawed aliquot 1 of secondary calibrator C4
[18] = target: CD9(ECD)-ALP conjugate (human; bovine); test: HI-1000 capture immunoassay; thawed aliquot 1 of secondary calibrator C2
[19] = target: CD9(ECD)-ALP conjugate (human; bovine); test: HI-1000 capture immunoassay; primary calibrator C4, 50.05 ng/mL; mean of 3
[20] = target: CD9(FL)-ALP conjugate (human; bovine); test: HI-1000 capture immunoassay; calibrator C5, 30 ng/mL; run 3
[21] = target: CD9(FL)-ALP conjugate (human; bovine); test: HI-1000 capture immunoassay; calibrator C3, 10.96 mU/L; run 2
[22] = target: CD9(FL)-ALP conjugate (human; bovine); test: HI-1000 capture immunoassay; calibrator C1, 1.0 ng/mL; mean of 3
[23] = target: CD9(ECD)-ALP conjugate (human; bovine); test: HI-1000 capture immunoassay; secondary calibrator C2, 3.84 U/L; run 3
[24] = target: CD9(ECD)-ALP conjugate (human; bovine); test: HI-1000 capture immunoassay; thawed aliquot 2 of secondary calibrator C1
[25] = target: CD9(ECD)-ALP conjugate (human; bovine); test: HI-1000 capture immunoassay; secondary calibrator C2, 3.84 U/L; run 1
[26] = target: CD9(ECD)-ALP conjugate (human; bovine); test: HI-1000 capture immunoassay; thawed aliquot 3 of secondary calibrator C5
[27] = target: CD9(FL)-ALP conjugate (human; bovine); test: HI-1000 capture immunoassay; calibrator C3, 7.4 ng/mL; mean of 3
[28] = target: CD9(ECD)-ALP conjugate (human; bovine); test: HI-1000 capture immunoassay; secondary calibrator C5, 387.01 U/L; run 3
[29] = target: CD9(FL)-ALP conjugate (human; bovine); test: HI-1000 capture immunoassay; calibrator C1, 1.83 mU/L; run 2
[30] = target: CD9(FL)-ALP conjugate (human; bovine); test: HI-1000 capture immunoassay; calibrator C4, 15 ng/mL; run 2
[31] = target: CD9(ECD)-ALP conjugate (human; bovine); test: HI-1000 capture immunoassay; primary calibrator C2, 4.89 ng/mL; run 3
[32] = target: CD9(ECD)-ALP conjugate (human; bovine); test: HI-1000 capture immunoassay; primary calibrator C4, 50.05 ng/mL; run 1
[33] = target: CD9(ECD)-ALP conjugate (human; bovine); test: HI-1000 capture immunoassay; primary calibrator C2, 4.89 ng/mL; run 1
[34] = target: CD9(FL)-ALP conjugate (human; bovine); test: HI-1000 capture immunoassay; calibrator C5, 43.86 mU/L; run 2
[35] = target: CD9(FL)-ALP conjugate (human; bovine); test: HI-1000 capture immunoassay; calibrator C2, 3.7 ng/mL; run 3
[36] = target: CD9(ECD)-ALP conjugate (human; bovine); test: HI-1000 capture immunoassay; secondary calibrator C2, 3.84 U/L; mean of 3
[37] = target: CD9(ECD)-ALP conjugate (human; bovine); test: HI-1000 capture immunoassay; thawed aliquot 3 of secondary calibrator C2
[38] = target: CD9(ECD)-ALP conjugate (human; bovine); test: HI-1000 capture immunoassay; secondary calibrator C4, 129.62 U/L; run 2
[39] = target: CD9(FL)-ALP conjugate (human; bovine); test: HI-1000 capture immunoassay; calibrator C2, 5.48 mU/L; run 3
[40] = target: CD9(ECD)-ALP conjugate (human; bovine); test: HI-1000 capture immunoassay; thawed aliquot 2 of secondary calibrator C3

CD9(ECD)-ALP conjugate (human; bovine), sequence (chain, as listed by the source, chain 1 of 2): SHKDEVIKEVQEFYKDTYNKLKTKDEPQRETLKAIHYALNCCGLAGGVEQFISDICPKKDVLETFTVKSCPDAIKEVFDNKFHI
CD9(ECD)-ALP conjugate (human; bovine), sequence (P19111 20-506, chain 2 of 2): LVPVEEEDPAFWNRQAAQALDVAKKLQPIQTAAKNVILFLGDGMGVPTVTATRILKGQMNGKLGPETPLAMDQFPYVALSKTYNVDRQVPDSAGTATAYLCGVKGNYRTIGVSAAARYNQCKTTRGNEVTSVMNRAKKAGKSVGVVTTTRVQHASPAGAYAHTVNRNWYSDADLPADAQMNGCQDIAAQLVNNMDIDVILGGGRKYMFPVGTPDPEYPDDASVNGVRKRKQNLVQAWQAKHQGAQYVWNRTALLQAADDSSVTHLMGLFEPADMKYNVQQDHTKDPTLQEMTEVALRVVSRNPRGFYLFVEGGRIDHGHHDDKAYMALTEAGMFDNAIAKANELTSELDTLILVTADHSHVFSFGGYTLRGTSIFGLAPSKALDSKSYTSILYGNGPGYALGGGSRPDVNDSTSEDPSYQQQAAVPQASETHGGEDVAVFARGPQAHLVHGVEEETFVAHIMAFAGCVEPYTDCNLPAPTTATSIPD
CD9(FL)-ALP conjugate (human; bovine), sequence (chain, as listed by the source, chain 1 of 2): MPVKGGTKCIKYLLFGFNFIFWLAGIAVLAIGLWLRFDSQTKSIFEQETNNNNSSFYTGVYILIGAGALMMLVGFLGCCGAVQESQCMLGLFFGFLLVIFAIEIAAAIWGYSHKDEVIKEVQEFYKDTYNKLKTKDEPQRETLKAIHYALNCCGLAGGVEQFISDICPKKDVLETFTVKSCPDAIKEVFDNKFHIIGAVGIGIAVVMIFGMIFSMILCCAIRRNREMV
CD9(FL)-ALP conjugate (human; bovine), sequence (P19111 20-506, chain 2 of 2): as the sequence (P19111 20-506, chain 2 of 2) above

Count value (av) [1]: 11600 count | Count value [2]: 1100 count | Count value [3]: 1580 count | Count value [4]: 12000 count | Count value [5]: 67600 count | Count value [6]: 7040 count | Count value (av) [7]: 7190 count | Count value [8]: 6810 count | Count value [9]: 8680 count | Count value (av) [10]: 4280 count | Count value [11]: 818 count | Count value (av) [12]: 70000 count | Count value [13]: 7020 count | Count value (av) [14]: 1540 count | Count value [15]: 70400 count | Count value [16]: 975 count | Count value [17]: 11400 count | Count value [18]: 1560 count | Count value (av) [19]: 22200 count | Count value [20]: 26100 count | Count value [21]: 7090 count | Count value (av) [22]: 1480 count | Count value [23]: 2450 count | Count value [24]: 810 count | Count value [25]: 2420 count | Count value [26]: 35700 count | Count value (av) [27]: 7020 count | Count value [28]: 209000 count | Count value [29]: 1580 count | Count value [30]: 13800 count | Count value [31]: 2540 count | Count value [32]: 22400 count | Count value [33]: 2610 count | Count value [34]: 25600 count | Count value [35]: 3800 count | Count value (av) [36]: 2390 count | Count value [37]: 1520 count | Count value [38]: 69400 count | Count value [39]: 3780 count | Count value [40]: 4080 count
Substance: anti-CD9 antibody (Clone: H19a)
